Measured values taken from the supplement of paper PMC11865577.

Columns and labels:
Test in all cases: pull-down binding Z-score (relative to library population); higher = stronger binding
[1] = tested on: TO-N3-2 (biotin conjugate); settings: RNA library: Library-2
In short: (§1)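 Cy5- or Cy3-end-labelled RNA library (1 μg) was heat-folded in phosphate/NaCl/KCl buffer and incubated 60 min at 25 °C with streptavidin beads carrying 100 pmol biotin-conjugated small molecule. After three washes, bound RNA was eluted in hot SDS and hybridised 20 h at 55.5 °C to a DNA barcode microarray. Binding was scored by subtracting a beads-only control, averaging barcoded replicate probes after dropping highest and lowest, and converting to a Z-score against library mean and standard deviation.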

TO-N3 (biotin conjugate) = settings: RNA library: Library-2
In short: as §1

[2] = tested on: TO-3-N3-2 (biotin conjugate); settings: RNA library: Library-2
In short: as §1

[3] = tested on: G-clamp-N3 (biotin conjugate); settings: RNA library: Library-1 (pre-miRNA loops + repeats)
In short: as §1

[4] = tested on: TO-3-N3 (biotin conjugate); settings: RNA library: Library-2
In short: as §1

| Sequence | pull-down binding Z-score [1] | pull-down binding Z-score (TO-N3 (biotin conjugate)) | pull-down binding Z-score [2] | pull-down binding Z-score [3] | pull-down binding Z-score [4] |
| --- | --- | --- | --- | --- | --- |
| CAGUGGUGCCAUCUCCCCUG [hsa-mir-5008] | 0.471 | -0.122 | -0.353 | -1.49 | -0.377 |
| AUAGUUUAGAAUUACAUCAAGGGAGAUAACUGU [hsa-let-7a-2] | -0.163 | -0.695 | 0.285 | 0.705 | -0.34 |
| UCCAGGCAUCUGUGUCUG [hsa-mir-4669] | 0.591 | 1.52 | 0.402 | -0.0379 | 1.48 |
| AGCUGUGAAAGUCCUAGCU [hsa-mir-1256] | 3.94 | 2.17 | 0.221 | 0.661 | 0.994 |
| UGGGUCAAGGAGCCCA [hsa-mir-4530] | -0.3 | -0.3 | -0.211 | 0.476 | -0.163 |
| GGGUUGCAUCCUAAGCUGUGCUGGAGCUUCCC [hsa-mir-623] | 0.682 | 0.877 | 0.384 | -0.84 | 0.567 |
| GGUUGGCCGCUGACCCCCGCGGGGCCCCCGGCGGCC [hsa-mir-3195] | 0.847 | 0.0623 | -0.293 | 0.0226 | -0.103 |
| UUUAAGACACCCUGUACCUUAAA [hsa-mir-3121] | -0.346 | -0.415 | -0.305 | -1.57 | -0.44 |
| CACGCCGCGCCGCCGGGUCCCUCCUCCCCGGAGAGGCUG [hsa-mir-4674] | 1.56 | 0.606 | -0.048 | 0.455 | 0.257 |
| UGAGUGCUAUUUCAGUGCAACA [hsa-mir-362] | 0.0784 | 0.821 | 0.108 | -0.0128 | 0.967 |
| UAGGAUUUGGGAGUUAUACUA [hsa-mir-5690] | -0.349 | -0.492 | -0.0337 | 0.541 | -0.528 |
| GUGAGAUGUUCAUACAAUCCCUCAC [hsa-mir-216a] | -0.17 | -0.852 | -0.438 | -1.01 | -0.788 |
| GGCUGCGUGCCACCCGGGCAGCU [hsa-mir-3194] | 0.701 | -0.112 | -0.183 | 1.93 | -0.341 |
| GGCGGGCGGCGGUGCCCGUC [hsa-mir-4449] | 0.91 | 1.53 | 0.0801 | 1.71 | 0.739 |
| GGAGCUCUGUGCCUUUGGGUCCUGGUGAGCUCU [hsa-mir-6070] | 0.681 | 0.413 | -0.129 | 0.246 | 0.271 |
| ACACACACCAGACUAUGGAAGCCAGUGU [hsa-mir-147a] | 0.0135 | -0.528 | -0.471 | -0.656 | -0.455 |
| CAUUUCAGCGUAUAUAUGUAUAUGUGGCUGUG [hsa-mir-19b-2] | 0.0211 | 1.11 | 0.559 | 2.71 | 1.07 |
| UCCUGUAGUGUCUUAUAUACAAUACAGUAGGA [hsa-mir-613] | -0.539 | -0.743 | -0.802 | -0.0831 | -0.741 |
